{"source": "paper PMC3701638", "biological_target": "α-casein", "data": [{"substance": "GST-CK1δ (FP449), wild-type full length rat CK1δ (from UniProt Q06486 1-415) (enzyme)", "values": [{"measurement": "Km of α-casein phosphorylation by the kinase (in vitro kinase assay, Michaelis-Menten fit)", "value": 4.84, "unit": "µM"}]}, {"substance": "GST-CK1δ^(S328A, S370A) (FP1292) (from UniProt Q06486 1-415) (enzyme)", "values": [{"measurement": "Km of α-casein phosphorylation by the kinase (in vitro kinase assay, Michaelis-Menten fit)", "value": 5.31, "unit": "µM"}]}, {"substance": "GST-CK1δ^(S328A, S370A, T397A) (FP1293) (from UniProt Q06486 1-415) (enzyme)", "values": [{"measurement": "Km of α-casein phosphorylation by the kinase (in vitro kinase assay, Michaelis-Menten fit)", "value": 7.74, "unit": "µM"}]}, {"substance": "GST-CK1δ^(S328A, T397A) (FP1268) (from UniProt Q06486 1-415) (enzyme)", "values": [{"measurement": "Km of α-casein phosphorylation by the kinase (in vitro kinase assay, Michaelis-Menten fit)", "value": 6.63, "unit": "µM"}]}, {"substance": "GST-CK1δ^S328A (FP1267) (from UniProt Q06486 1-415) (enzyme)", "values": [{"measurement": "Km of α-casein phosphorylation by the kinase (in vitro kinase assay, Michaelis-Menten fit)", "value": 5.49, "unit": "µM"}]}, {"substance": "GST-CK1δ^S370A (FP1030) (from UniProt Q06486 1-415) (enzyme)", "values": [{"measurement": "Km of α-casein phosphorylation by the kinase (in vitro kinase assay, Michaelis-Menten fit)", "value": 7.38, "unit": "µM"}]}, {"substance": "GST-CK1δ^T397A (FP1184) (from UniProt Q06486 1-415) (enzyme)", "values": [{"measurement": "Km of α-casein phosphorylation by the kinase (in vitro kinase assay, Michaelis-Menten fit)", "value": 7.2, "unit": "µM"}]}]}
